Experimental data: the MegaScale stability set (Tsuboyama et al. 2023)

B1: r11_951_TrROS_Hall (parent)
chain: KKKYVIKVYFEDTGKEVEIEAESKEEALEAAKRLAEELGLKIKKVEIYP

Variants of: B1
Experiment: folding stability dG (cDNA display proteolysis); higher = more stable
Conditions: PBS, room temperature

Going from KKKYVIKVYFEDTGKEVSIEAESKEEALEAAKRLAEELGLKIKKVEIYP to KKKYVIKVYFEDTGKEVYIEAESKEEALEAAKRLAEELGLKIKKVEIYP, the “folding stability dG” value falls from 4.25 kcal/mol to 4.12 kcal/mol.

Compared with KKKYVIKVYFEDTGKEVGIEAESKEEALEAAKRLAEELGLKIKKVEIYP, KKKYVIKVYFEDTGKEVDIEAESKEEALEAAKRLAEELGLKIKKVEIYP is higher in “folding stability dG” value: 4.06 kcal/mol for the first, 4.45 kcal/mol for the second.

First: KKKYVIKVYFEDTGKEVEIEVESKEEALEAAKRLAEELGLKIKKVEIYP
Second: KKKYVIKVYFEDTGKEVEIENESKEEALEAAKRLAEELGLKIKKVEIYP
The “folding stability dG” value of the first is higher: 4.45 kcal/mol for the first, 3.84 kcal/mol for the second.

First: KKKYVIKVYFEDTGKEVEIEYESKEEALEAAKRLAEELGLKIKKVEIYP
Second: KKKYVIKVYFEDTGKEVEIESESKEEALEAAKRLAEELGLKIKKVEIYP
The “folding stability dG” value of the first is lower: 4.18 kcal/mol for the first, 4.7 kcal/mol for the second.

Going from KKKYVIKVYFEDTGKEVEIETESKEEALEAAKRLAEELGLKIKKVEIYP to KKKYVIKVYFEDTGKEVEIELESKEEALEAAKRLAEELGLKIKKVEIYP, the “folding stability dG” value falls from 4.37 kcal/mol to 4.24 kcal/mol.

First: KKKYVIKVYFEDTGKEVEIEIESKEEALEAAKRLAEELGLKIKKVEIYP
Second: KKKYVIKVYFEDTGKEVEIEKESKEEALEAAKRLAEELGLKIKKVEIYP
The “folding stability dG” value of the first is higher: 4.44 kcal/mol for the first, 4.29 kcal/mol for the second.

First: KKKYVIKVYFEDTGKEVEIEMESKEEALEAAKRLAEELGLKIKKVEIYP
Second: KKKYVIKVYFEDTGKEVEIEFESKEEALEAAKRLAEELGLKIKKVEIYP
The “folding stability dG” value of the first is higher: 4.26 kcal/mol for the first, 4.23 kcal/mol for the second.

First: KKKYVIKVYFEDTGKEVEIEDESKEEALEAAKRLAEELGLKIKKVEIYP
Second: KKKYVIKVYFEDTGKEVEIEPESKEEALEAAKRLAEELGLKIKKVEIYP
The “folding stability dG” value of the first is higher: 3.72 kcal/mol for the first, 2.03 kcal/mol for the second.

Compared with KKKYVIKVYFEDTGKEVEIECESKEEALEAAKRLAEELGLKIKKVEIYP, KKKYVIKVYFEDTGKEVEIEQESKEEALEAAKRLAEELGLKIKKVEIYP is lower in “folding stability dG” value: 4.07 kcal/mol for the first, 3.77 kcal/mol for the second.

First: KKKYVIKVYFEDTGKEVEIERESKEEALEAAKRLAEELGLKIKKVEIYP
Second: KKKYVIKVYFEDTGKEVEIEWESKEEALEAAKRLAEELGLKIKKVEIYP
The “folding stability dG” value of the first is higher: 4.32 kcal/mol for the first, 3.72 kcal/mol for the second.

First: KKKYVIKVYFEDTGKEVEIEEESKEEALEAAKRLAEELGLKIKKVEIYP
Second: KKKYVIKVYFEDTGKEVEIEHESKEEALEAAKRLAEELGLKIKKVEIYP
The “folding stability dG” value of the first is lower: 4.25 kcal/mol for the first, 4.3 kcal/mol for the second.

Going from KKKYVIKVYFEDTGKEVEIEGESKEEALEAAKRLAEELGLKIKKVEIYP to KKKYVIKVYFEDTGKEVEIEAMSKEEALEAAKRLAEELGLKIKKVEIYP, the “folding stability dG” value falls from 4.28 kcal/mol to 4.07 kcal/mol.

First: KKKYVIKVYFEDTGKEVEIEACSKEEALEAAKRLAEELGLKIKKVEIYP
Second: KKKYVIKVYFEDTGKEVEIEAASKEEALEAAKRLAEELGLKIKKVEIYP
The “folding stability dG” value of the first is higher: 4.52 kcal/mol for the first, 4.36 kcal/mol for the second.

Compared with KKKYVIKVYFEDTGKEVEIEAHSKEEALEAAKRLAEELGLKIKKVEIYP, KKKYVIKVYFEDTGKEVEIEAKSKEEALEAAKRLAEELGLKIKKVEIYP is lower in “folding stability dG” value: 4.49 kcal/mol for the first, 4.05 kcal/mol for the second.

Compared with KKKYVIKVYFEDTGKEVEIEALSKEEALEAAKRLAEELGLKIKKVEIYP, KKKYVIKVYFEDTGKEVEIEANSKEEALEAAKRLAEELGLKIKKVEIYP is higher in “folding stability dG” value: 4.26 kcal/mol for the first, 4.38 kcal/mol for the second.

First: KKKYVIKVYFEDTGKEVEIEAFSKEEALEAAKRLAEELGLKIKKVEIYP
Second: KKKYVIKVYFEDTGKEVEIEADSKEEALEAAKRLAEELGLKIKKVEIYP
The “folding stability dG” value of the first is higher: 4.46 kcal/mol for the first, 4.26 kcal/mol for the second.

First: KKKYVIKVYFEDTGKEVEIEAGSKEEALEAAKRLAEELGLKIKKVEIYP
Second: KKKYVIKVYFEDTGKEVEIEAISKEEALEAAKRLAEELGLKIKKVEIYP
The “folding stability dG” value of the first is higher: 4.32 kcal/mol for the first, 4.11 kcal/mol for the second.

First: KKKYVIKVYFEDTGKEVEIPAESKEEALEAAKRLAEELGLKIKKVEIYP
Second: KKKYVIKVYFEDTGKEVEIFAESKEEALEAAKRLAEELGLKIKKVEIYP
The “folding stability dG” value of the first is higher: 4.29 kcal/mol for the first, 4.25 kcal/mol for the second.

Going from KKKYVIKVYFEDTGKEVEIWAESKEEALEAAKRLAEELGLKIKKVEIYP to KKKYVIKVYFEDTGKEVEIHAESKEEALEAAKRLAEELGLKIKKVEIYP, the “folding stability dG” value falls from 4.49 kcal/mol to 4.42 kcal/mol.

First: KKKYVIKVYFEDTGKEVEINAESKEEALEAAKRLAEELGLKIKKVEIYP
Second: KKKYVIKVYFEDTGKEVEIGAESKEEALEAAKRLAEELGLKIKKVEIYP
The “folding stability dG” value of the first is lower: 4.22 kcal/mol for the first, 4.27 kcal/mol for the second.

Compared with KKKYVIKVYFEDTGKEVEIQAESKEEALEAAKRLAEELGLKIKKVEIYP, KKKYVIKVYFEDTGKEVEIIAESKEEALEAAKRLAEELGLKIKKVEIYP is lower in “folding stability dG” value: 4.43 kcal/mol for the first, 4.38 kcal/mol for the second.

Compared with KKKYVIKVYFEDTGKEVEIYAESKEEALEAAKRLAEELGLKIKKVEIYP, KKKYVIKVYFEDTGKEVEIVAESKEEALEAAKRLAEELGLKIKKVEIYP is lower in “folding stability dG” value: 4.56 kcal/mol for the first, 4.42 kcal/mol for the second.

First: KKKYVIKVYFEDTGKEVEIRAESKEEALEAAKRLAEELGLKIKKVEIYP
Second: KKKYVIKVYFEDTGKEVEIDAESKEEALEAAKRLAEELGLKIKKVEIYP
The “folding stability dG” value of the first is higher: 4.29 kcal/mol for the first, 4.27 kcal/mol for the second.

Compared with KKKYVIKVYFEDTGKEVEIMAESKEEALEAAKRLAEELGLKIKKVEIYP, KKKYVIKVYFEDTGKEVEISAESKEEALEAAKRLAEELGLKIKKVEIYP is lower in “folding stability dG” value: 4.42 kcal/mol for the first, 4.22 kcal/mol for the second.

Going from KKKYVIKVYFEDTGKEVEIAAESKEEALEAAKRLAEELGLKIKKVEIYP to KKKYVIKVYFEDTGKEVEICAESKEEALEAAKRLAEELGLKIKKVEIYP, the “folding stability dG” value falls from 4.33 kcal/mol to 4.28 kcal/mol.

Compared with KKKYVIKVYFEDTGKEVEILAESKEEALEAAKRLAEELGLKIKKVEIYP, KKKYVIKVYFEDTGKEVEIKAESKEEALEAAKRLAEELGLKIKKVEIYP is lower in “folding stability dG” value: 4.36 kcal/mol for the first, 4.03 kcal/mol for the second.

In the case of KKKYVIKVYFEDTGKEVEITAESKEEALEAAKRLAEELGLKIKKVEIYP, the “folding stability dG” value is reported as 4.4 kcal/mol.
